Biological target: NNN-GFPglyc (GnTI CTS region fused to the glycosylation reporter GFPglyc) (Nicotiana tabacum (legend of Figure 1 and methods); the running text says N. benthamiana)
Experiment: FRET or BRET; two-photon FRET-FLIM in living N. benthamiana leaf epidermal cells, Golgi bodies, leaves treated with 25 uM latrunculin B; donor NNN-GFPglyc, acceptor CTS-mRFP; a decrease of the donor lifetime by 0.20 ns or 8% taken as interaction

FRET efficiency E	donor lifetime with acceptor (tau DA)	lifetime contrast (delta tau)	Substance
10.8%	2.18 ns	0.26 ns	RNN-mRFP (chimeric CTS region: ST cytoplasmic tail, GnTI transmembrane domain and stem, fused to mRFP) (from UniProt P13721 1-9)
14.6%	2.08 ns	0.36 ns	NNN-mRFP (GnTI CTS region fused to mRFP) (domain or fragment)
